Source: paper PMC7978357, “Indole-3-acetic acid is a physiological inhibitor of TORC1 in yeast” (PLoS Genetics, 2021)

What was measured:
[1] = tested on: Nc1ncnc2c1ncn2[C@@H]1O[C@H](COP(=O)(O)OP(=O)(O)OP(=O)(O)O)[C@@H](O)[C@H]1O; test: purified protein; settings: Mg2+
[2] = biological target: T1, TORC1 (Tor1 kinase subunit) (Saccharomyces cerevisiae, UniProt P35169); test: in vitro radioactive [γ-32P]-ATP kinase assay with purified TORC1, Lst4 loop substrate; enzyme kinetics; type: biochemical
T1 construct: TORC1 complex purified from yeast via Tco89-TEV-TAP (quantified with respect to the Tor1 subunit); with Kog1, Lst8, Tco89 (TORC1 subunits)
T1 sequence (P35169 whole entry): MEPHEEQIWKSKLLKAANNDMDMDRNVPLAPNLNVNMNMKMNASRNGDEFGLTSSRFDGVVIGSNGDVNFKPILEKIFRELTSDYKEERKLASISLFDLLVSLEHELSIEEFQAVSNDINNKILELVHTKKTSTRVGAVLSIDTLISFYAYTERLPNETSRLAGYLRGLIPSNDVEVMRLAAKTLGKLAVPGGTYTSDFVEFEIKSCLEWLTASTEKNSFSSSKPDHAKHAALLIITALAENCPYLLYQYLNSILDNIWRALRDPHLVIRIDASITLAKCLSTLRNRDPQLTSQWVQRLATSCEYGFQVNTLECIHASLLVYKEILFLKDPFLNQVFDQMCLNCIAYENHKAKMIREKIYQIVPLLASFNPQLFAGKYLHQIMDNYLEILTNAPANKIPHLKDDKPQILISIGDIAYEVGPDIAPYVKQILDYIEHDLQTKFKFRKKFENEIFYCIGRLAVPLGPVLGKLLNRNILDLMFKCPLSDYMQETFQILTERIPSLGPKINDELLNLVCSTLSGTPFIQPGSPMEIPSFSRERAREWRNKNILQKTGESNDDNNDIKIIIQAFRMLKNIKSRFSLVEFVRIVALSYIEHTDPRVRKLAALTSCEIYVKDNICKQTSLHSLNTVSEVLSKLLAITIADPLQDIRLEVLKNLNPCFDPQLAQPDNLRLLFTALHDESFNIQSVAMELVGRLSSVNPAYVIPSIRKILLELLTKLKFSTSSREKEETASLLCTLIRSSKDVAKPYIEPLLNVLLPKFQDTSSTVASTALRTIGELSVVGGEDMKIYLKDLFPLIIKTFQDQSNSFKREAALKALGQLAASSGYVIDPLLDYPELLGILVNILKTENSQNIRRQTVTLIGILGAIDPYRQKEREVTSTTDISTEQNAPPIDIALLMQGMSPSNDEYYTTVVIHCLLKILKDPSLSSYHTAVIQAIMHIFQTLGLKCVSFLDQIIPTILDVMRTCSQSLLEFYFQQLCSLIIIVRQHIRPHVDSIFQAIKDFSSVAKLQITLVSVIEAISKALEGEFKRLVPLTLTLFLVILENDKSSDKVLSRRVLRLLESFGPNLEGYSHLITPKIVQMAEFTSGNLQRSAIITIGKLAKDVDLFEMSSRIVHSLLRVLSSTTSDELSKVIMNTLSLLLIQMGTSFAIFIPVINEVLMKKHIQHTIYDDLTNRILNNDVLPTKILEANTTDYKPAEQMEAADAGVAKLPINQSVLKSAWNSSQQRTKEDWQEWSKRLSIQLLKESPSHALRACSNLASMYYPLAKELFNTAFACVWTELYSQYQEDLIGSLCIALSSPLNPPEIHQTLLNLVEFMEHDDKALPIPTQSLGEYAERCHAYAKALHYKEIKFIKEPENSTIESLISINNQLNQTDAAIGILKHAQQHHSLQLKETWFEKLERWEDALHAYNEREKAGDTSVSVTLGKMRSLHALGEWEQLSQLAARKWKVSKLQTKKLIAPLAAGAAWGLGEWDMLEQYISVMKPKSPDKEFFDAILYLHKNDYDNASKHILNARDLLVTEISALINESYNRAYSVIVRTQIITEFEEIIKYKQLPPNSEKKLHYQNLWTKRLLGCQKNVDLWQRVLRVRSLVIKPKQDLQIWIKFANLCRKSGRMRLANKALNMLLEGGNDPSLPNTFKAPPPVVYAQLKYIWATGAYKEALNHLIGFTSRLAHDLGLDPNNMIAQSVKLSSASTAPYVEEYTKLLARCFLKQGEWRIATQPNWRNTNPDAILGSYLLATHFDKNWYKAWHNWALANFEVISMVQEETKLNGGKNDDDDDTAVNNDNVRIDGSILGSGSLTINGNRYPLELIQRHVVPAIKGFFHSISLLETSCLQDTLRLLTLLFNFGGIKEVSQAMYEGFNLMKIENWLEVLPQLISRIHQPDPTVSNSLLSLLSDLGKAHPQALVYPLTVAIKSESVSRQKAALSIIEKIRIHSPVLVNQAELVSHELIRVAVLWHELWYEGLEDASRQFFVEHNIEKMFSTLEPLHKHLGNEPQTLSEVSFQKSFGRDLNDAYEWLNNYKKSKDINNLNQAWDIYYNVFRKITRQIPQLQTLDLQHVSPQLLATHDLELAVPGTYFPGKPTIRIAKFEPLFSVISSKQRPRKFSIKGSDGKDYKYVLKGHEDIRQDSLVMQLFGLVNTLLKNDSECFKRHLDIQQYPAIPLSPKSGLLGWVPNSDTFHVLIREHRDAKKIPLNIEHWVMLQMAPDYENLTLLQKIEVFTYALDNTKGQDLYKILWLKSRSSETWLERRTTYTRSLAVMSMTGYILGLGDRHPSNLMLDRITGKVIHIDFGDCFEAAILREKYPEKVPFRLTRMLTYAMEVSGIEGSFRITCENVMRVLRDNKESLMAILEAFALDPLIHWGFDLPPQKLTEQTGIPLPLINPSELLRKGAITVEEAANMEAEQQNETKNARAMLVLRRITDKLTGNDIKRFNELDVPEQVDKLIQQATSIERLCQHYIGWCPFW
T1 sequence (P38873 whole entry partner): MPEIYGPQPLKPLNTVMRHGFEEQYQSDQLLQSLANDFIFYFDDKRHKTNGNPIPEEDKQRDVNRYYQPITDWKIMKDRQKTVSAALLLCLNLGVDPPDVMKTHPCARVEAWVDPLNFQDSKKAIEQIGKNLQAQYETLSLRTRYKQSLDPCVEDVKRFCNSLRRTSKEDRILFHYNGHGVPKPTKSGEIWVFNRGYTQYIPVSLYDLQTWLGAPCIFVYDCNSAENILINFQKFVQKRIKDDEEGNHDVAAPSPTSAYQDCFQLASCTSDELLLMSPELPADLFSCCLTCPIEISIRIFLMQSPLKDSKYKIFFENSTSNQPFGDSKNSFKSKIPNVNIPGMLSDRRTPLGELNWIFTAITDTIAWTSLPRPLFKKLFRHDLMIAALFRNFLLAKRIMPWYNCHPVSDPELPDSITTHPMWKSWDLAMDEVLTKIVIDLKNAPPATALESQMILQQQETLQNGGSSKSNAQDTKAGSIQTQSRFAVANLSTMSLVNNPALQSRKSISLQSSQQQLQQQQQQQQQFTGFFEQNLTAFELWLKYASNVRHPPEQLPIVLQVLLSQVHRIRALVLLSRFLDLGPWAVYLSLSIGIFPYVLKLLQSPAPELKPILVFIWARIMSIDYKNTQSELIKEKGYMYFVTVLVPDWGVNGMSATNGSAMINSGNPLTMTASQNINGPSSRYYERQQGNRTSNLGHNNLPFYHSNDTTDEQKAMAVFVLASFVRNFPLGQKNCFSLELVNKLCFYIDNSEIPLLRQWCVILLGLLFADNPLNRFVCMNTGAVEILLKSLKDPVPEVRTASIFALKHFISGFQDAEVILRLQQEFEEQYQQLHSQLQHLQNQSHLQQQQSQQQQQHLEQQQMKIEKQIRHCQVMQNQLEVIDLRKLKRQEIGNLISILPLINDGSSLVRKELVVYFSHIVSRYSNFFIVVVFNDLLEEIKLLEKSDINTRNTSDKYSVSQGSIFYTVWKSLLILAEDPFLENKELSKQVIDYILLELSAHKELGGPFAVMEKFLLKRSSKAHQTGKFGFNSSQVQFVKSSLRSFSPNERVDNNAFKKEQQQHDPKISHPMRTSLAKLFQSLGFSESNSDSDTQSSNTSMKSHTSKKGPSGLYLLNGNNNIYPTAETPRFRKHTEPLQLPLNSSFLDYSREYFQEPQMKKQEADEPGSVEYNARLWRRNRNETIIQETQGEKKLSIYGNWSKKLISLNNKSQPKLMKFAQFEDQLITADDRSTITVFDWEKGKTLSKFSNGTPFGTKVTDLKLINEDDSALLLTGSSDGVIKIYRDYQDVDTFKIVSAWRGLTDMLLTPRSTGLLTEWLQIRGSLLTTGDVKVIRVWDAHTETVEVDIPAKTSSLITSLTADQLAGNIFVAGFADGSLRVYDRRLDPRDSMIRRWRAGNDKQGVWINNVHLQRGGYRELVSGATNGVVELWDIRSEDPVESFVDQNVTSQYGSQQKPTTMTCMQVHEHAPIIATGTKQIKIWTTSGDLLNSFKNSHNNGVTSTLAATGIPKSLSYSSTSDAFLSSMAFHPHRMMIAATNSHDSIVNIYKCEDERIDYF
T1 sequence (P41318 whole entry partner): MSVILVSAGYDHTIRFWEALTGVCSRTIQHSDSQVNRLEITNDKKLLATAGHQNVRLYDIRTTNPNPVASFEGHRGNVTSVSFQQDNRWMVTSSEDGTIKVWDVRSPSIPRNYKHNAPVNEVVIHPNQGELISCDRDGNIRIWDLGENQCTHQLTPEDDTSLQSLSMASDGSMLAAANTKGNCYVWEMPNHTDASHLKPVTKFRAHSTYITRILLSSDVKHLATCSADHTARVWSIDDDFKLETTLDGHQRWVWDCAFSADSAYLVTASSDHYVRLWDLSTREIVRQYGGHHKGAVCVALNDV

Compound | Km [1] | Ki [2]
TORC1 (Tor1 kinase subunit) (Saccharomyces cerevisiae S288C) | 50.5 µM | –
O=C(O)Cc1c[nH]c2ccccc12 [IAA, Indole-3-acetic acid] | – | 2400 nM
